Test: soluble on expression in E. coli; label from the status in PepcDB or PDB records

| Sequence | soluble on expression in E. coli |
| --- | --- |
| MGSDKIHHHHHHMGTCLLSGLSEPSGGISEHLRGQTDQLGFRQFPHGLSGITQPCRGHRAPLAGLHPRYLRFSQSTPAHFVILTTESMTPTPEIPEPHYIGHRQRLKKKFFKCGLQALHDYEAVELLLSYAIPRKDIKSLSKDLLERFGSLKGIMDAELEELTAVRGISAHAAGLVRMVKEMSALYLQEKAREKPQISCTGELLDFCKTALGGLKDENFCVLYLDTQNRIIAFETIQKGIVNQAVVYPRQVIERALSHKSSALILVHNHPSGFVKPSDADIRLTRTITDTAKLLDIMVHDHLIIGENRFFSFREEGIMPL | not soluble |
| MSLQMDQYLAQPLMIQEAQLVTIASGTTLSRELAQLTEQAWIQDSFVAEWVRRFHPELSKIKAGTYKLQPDMSLEQALALLVSGKEHQFSITFVEGSRFQEWRDILASNENITQQLTGLTEIDIAKALGIEHEKLEGLFLAETYHFTKGTSDVEILKRANQKLEKFLQVTWEHRQEGLPIQTPYEALILASIIEKETSIAEERERIAAVFINRLNKRMRLQTDPTVIYGMGETYDGNIRKKDLRARTPYNTYVINGLPPTPIAMPGEASIYAALNPEQSDYLYFVASGEGGHNFSKTLADHNRAVRAYLKKLRTKQEGHHHHHH | soluble |
| MVDPNEHKKAVKTQQQDDEQTFEAVARAWHTDNKKWSESHAERILKSLSDNIFPAIGGTHVANLKTRDLLTPIKSVERSGRLEVAKRLKQRVTAIMTYAVQNGLIDYNPAQDMAGAIMPGKVEHRLEHHHHHH | not soluble |
| MKYKIFASTTPQTEPVLQKLKQVLKGCEAVEKGFDYLFVLGGDGFFVSTVANYNCHNCRVVGINTGHLGFYTSFNEKDLDDNFLQKLQQCHFQRISLLEVSVNGQQHLVLNELAVYTNTAYPINIFIDGEAWEFYRGSGLLIGPRTGSTALAKSAKGAVIFPGIDVLQIIEMNPLLHPNQVTIQSPIILPKETQVEFVVKKAFNPQQFPTFYCDGRKLELPNADTTLALKLVQSTPMFNISLKTQDFINKLKSTFIKQSLEHHHHHH | not soluble |
| MSLKVGISMFNILQSTQLSSNTFDFWLEAPRIATHAQAGQFVILRIDEKGERIPLTIAETNPQAGSIRIIFQVIGKTTAALSQLKTSDSLLDITGPLGMPTEVKQYGTVMVVGGGVGIAAIYPIIKALKEAGNRVITILGARTAELVLLQEECRRYSDELIITTDDGSLGKKGLVTEAMEEVIARESVACSWAIGPSIMMKFCTLTAEKHQLPIYVSLNPIMIDGTGMCGGCRVTVDGTMKFACVDGPEFKGNEVNWDEFINRMKQYQEEEAVCFTDRLKEQVEKNGEGGSHHHHHH | soluble |
| MQNMLSMHFFSVMASLNAMASMRVIVFLYQLSILGDCSTIDSLRDLMISQIVLAYNCISVHVNMYISTNGSEASIASRMSTLESCLFLITMNKGSASFGKRRFFYRDLA | soluble |
| MSDAPTVVAYLGPAGTFTEEALYKFADAGVFGDGEIEQLPAKSPQEAVDAVRHGTAQFAVVAIENFVDGPVTPTFDALDQGSNVQIIAEEELDIAFSIMVRPGTSLADVKTLATHPVGYQQVKNWMATTIPDAMYLSASSNGAGAQMVAEGTADAAAAPSRAAELFGLERLVDDVADVRGARTRFVAVQAQAA | not soluble |
| MRILQLILLALATGLVGGETRIIKGFECKPHSQPWQAALFEKTRLLCGATLIAPRWLLTAAHCLKPRYIVHLGQHNLQKEEGCEQTRTATESFPHPGFNNSLPNKDHRNDIMLVKMASPVSITWAVRPLTLSSRCVTAGTSCLISGWGSTSSPQLRLPHTLRCANITIIEHQKCENAYPGNITDTMVCASVQEGGKDSCQGDSGGPLVCNQSLQGIISWGQDPCAITRKPGVYTKVCKYVDWIQETMKNN | soluble |
| MAHHHHHHMPLLTRGQRRLLEYVAHDGGTKGLKRRRMEDVAPVLHKRKQKWTHKFTTKTASADASLAEVPLSSEVLEFLREYCPKVPRKLRQSQLRVISDLSGAFGGNSEKEEGETFTVKRVELKENAEVFAVVALAALQRRALWSGSTPQGASLFVLVETDADAAALAAHMGNTYKMTRTLVLDGSRFPTFPAVEKDDAATATTLAERTALVIASLQAFVTVDARSAIWKFIGAYAIWLKSSKPPALLQEMADGTRSELEENCAGSGGVVWDMPRWLLSLLHRESPSLHP | not soluble |
| MGSDKIHHHHHHMATLTTNTPIATGSTFSAASLQFLNKLAQNNSRDWFKAHQAEYEETVRTPALQFIEQMQPSILALSPRLTAVPKKVGGSLMRPQRDSRFSKDKTPYKTNIGIQFRHFQGKDVHAPGLYLHIAEDGCFIAAGIWHPESKALNAIRTCIDENPNGYKKALQTLQNHGFTMDGDSLTRPPKGFDKNHPMLTELKRKDFIAVKNIAFEELCRPDAACFCAEQFAHCTQLMAYLCFALDLDF | not soluble |

Source: the DeepSol protein solubility set
